Laboratory results reported in PMC9601805, “Characterization of the Escherichia coli pyridoxal 5′‐phosphate homeostasis protein (YggS): Role of lysine residues in PLP binding and protein stability” (Protein Science : A Publication of the Protein Society, 2022).
“And” between values parts separate entries of the source, which are not always exact repeats. Equal values may be shown once. Read-outs that look alike come from different tables or passages of the source.

How the values were obtained:
apo‐YggS [1] = target: T1, apo‐YggS (Escherichia coli, UniProt P67080); assay: biochemical; format: binding; conditions: for Kd: dissociation constant (K D), ligand binding to WT apo-YggS, fluorescence change, 50 mM NaHEPES pH 7.6
T1 construct: made in house; host or cells: E. coli HMS174(DE3)
Protocol: (§1) Equilibrium binding analyses were carried out by measuring the decrease of protein intrinsic fluorescence observed upon the addition of increasing PLP concentrations to a fixed concentration of apo‐YggS (Figure 1b).
Dissociation constants were calculated from saturation curves obtained measuring the protein fluorescence emission intensity as a function of increasing PLP concentration. […] Fluorescence emission spectra were recorded from 310 to 450 nm upon excitation at 280 nm. Excitation and emission slits were set at 3 and 5 nm, respectively.

apo‐YggS [2] = target: T1, apo‐YggS; assay: biochemical; format: binding
Protocol: The thermal stability of holo‐ and apo‐YggS forms was analyzed by differential scanning fluorimetry (DSF).
Differential scanning fluorimetry (DSF) assays were performed on a Real Time PCR Instrument (CFX Connect Real Time PCR system, Bio‐Rad, Hercules, CA). In a typical experiment, 2 μM WT and variant apo‐YggS forms in 50 mM NaHEPES, pH 7.5, 50 mM NaCl, and Sypro Orange (5x, Thermo Scientific) were mixed with various ligands (total volume of 25 μl) in a 96‐well PCR plate. […] All samples were run in triplicate. Denaturation profiles were analyzed as described in Nardella et al.[40]

eSHMT = eSHMT (Escherichia coli, UniProt P0A825); assay: PLP binding to eSHMT; conditions: read-out: K D for PLP
apo‐YggS [3] = target: T1, apo‐YggS; assay: Kinetics of PLP binding to apo-YggS, absorbance of protonated Schiff base; conditions: manual mixing time
Protocol: as §1
(§2) We set up a novel in vitro discontinuous assay in which PLP transfer from holo‐YggS to the apo‐form of eSHMT could be followed (see Section 4 for details). In this assay, the increase in SHMT activity is measured as PLP dissociates from holo‐YggS and binds to apo‐SHMT, forming the catalytically active holo‐SHMT. […] The binding kinetics of free PLP to either apo‐YggS or apo‐SHMT was measured by manually mixing 20 μM free PLP with 20 μM of protein, observing the formation of the internal aldimine at 420 nm.

[4] = target: T2, E. coli serine hydroxymethyltransferase, apo-form (E. coli, UniProt P0A825 1-417); assay: SPR; SensiQ Pioneer, COOH5 chip; apo-SHMT immobilised via amine coupling (100 RU); holo-YggS injected at 0.24-180 μM in PBS with 0.005% surfactant P20, 30 μl/min; done twice; Scatchard analysis; conditions: both partners purified
T2 construct: serine hydroxymethyltransferase of E. coli, encoded by the glyA gene; without PLP (apo-form); also called apo-SHMT; apoSHMT; source: apo-form prepared with L-cysteine as for apo-YggS
T2 sequence (looked up): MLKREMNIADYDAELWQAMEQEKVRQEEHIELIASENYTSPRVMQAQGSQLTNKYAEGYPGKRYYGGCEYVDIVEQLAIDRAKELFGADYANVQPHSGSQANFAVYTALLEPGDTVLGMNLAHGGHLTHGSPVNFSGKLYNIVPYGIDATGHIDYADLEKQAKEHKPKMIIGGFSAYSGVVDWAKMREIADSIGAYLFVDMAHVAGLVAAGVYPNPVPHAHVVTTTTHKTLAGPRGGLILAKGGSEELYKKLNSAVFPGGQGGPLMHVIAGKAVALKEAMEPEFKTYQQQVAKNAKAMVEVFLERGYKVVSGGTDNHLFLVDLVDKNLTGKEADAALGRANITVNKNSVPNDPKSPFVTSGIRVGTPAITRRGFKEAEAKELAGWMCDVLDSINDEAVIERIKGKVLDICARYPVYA

[5] = Covalent (Schiff base) PLP binding judged by absorption spectra; conditions: ~416–420 nm band
Protocol: Our strategy was to start from the K36A variant and gradually add further variations so as to obtain all possible combinations of double, triple, and quadruple variants. Variations of the last two residues at the C‐terminal end of the protein, K233 and K234, were always introduced together and are therefore considered as a single K233A/K234A variation.
All spectroscopic measurements were carried out at 20°C in 20 mM NaHEPES pH 7.5. UV–visible spectra were recorded with a Hewlett‐Packard 8453 diode‐array spectrophotometer. Far‐UV (190–250 nm) and Near‐UV–visible (250–500 nm) CD spectra were measured with a Jasco 710 spectropolarimeter equipped with a DP 520 processor using 0.1‐cm (far‐UV) or 1‐cm path length quartz cuvettes and results were expressed as ellipticity [Θ]. Absorption spectra of WT and variant forms were deconvoluted into their component bands using Metzler's band‐shape analysis method.[22]

E. coli ΔyggS = assay: 4dPN sensitivity assay and complementation by YggS variants in trans; format: cell-based, Escherichia coli; conditions: expression in trans, M9 0.4% glucose, 1 μM PN, 20 μl of 25 mM 4dPN
Protocol: Bacteria were grown in Luria‐Bertani (LB; Tryptone 10 g L^− 1, Yeast extract 5 g L^− 1, NaCl 10 g L^− 1) or M9 minimal medium (Cold Spring Harbor Protocols, Cold Spring Harbor, NY) at 37°C, unless otherwise specified. Growth media were solidified with agar (16 g L^− 1; Fisher Scientific) for the preparation of plates. 4dPN toxicity assays were performed on thin (20 ml) M9 minimal medium plates containing 0.4% glucose (carbon source), ampicillin (100 μg ml^−1), 1 μM PN, and 0.02% or 0.2% arabinose when appropriate.
Wild‐type yggS was amplified by PCR with primers DH596 and DH598 from E. coli BW25113 and cloned in pBAD24 using restriction sites SphI and NcoI to give pBY291.3. The pBY291.3 plasmid and its derivatives were then used as templates with the NEB Q5 Site‐Directed Mutagenesis Kit and the primer pairs indicated in Table S4 to introduce site‐directed residue mutant constructs. All constructs were verified by sequencing and transformed into E. coli wild‐type (BW25113) and ΔyggS (VDC6594) electrocompetent cells for use in physiological studies. Plasmid transformations were performed following standard procedures and protein expression from each construct was confirmed by SDS‐PAGE and western blot analysis.
Three isolated colonies of each strain were inoculated into 5 ml LB Amp 200 μg ml^− 1 and incubated at 37°C and 200 rpm overnight. Overnight cultures were diluted 1:500 into 5 ml fresh LB Amp 200 μg ml^− 1 ± 0.02% or 0.2% arabinose and grown at 37°C, shaking. Once cultures reached midlog growth (OD600 of 0.4–0.7) samples were taken from each culture for western blot analysis (below) then cells were again incubated until stationary growth was reached (~6 hr). Cells were harvested by centrifugation then washed twice with and resuspended in 1x PBS. Optical density of washed cells was measured at 600 nm in 1 ml cuvettes (Fisher Scientific) using a BioSpec‐mini DNA/RNA/Protein analyzer (Shimadzu Biotech) and each strain was normalized to an OD600 of 0.006 in 3 ml 1x PBS. […]

[6] = PLP binding equilibrium of YggS WT and variant forms, intrinsic fluorescence change; conditions: E. coli YggS form 0.1 μM, 50 mM NaHEPES pH 7.6, 25°C, excitation 280 nm; mean ± SEM; read-out: K D (nM) of the PLP binding equilibrium
Protocol: Analyses took advantage of YggS intrinsic fluorescence decrease observed upon binding of PLP. Dissociation constants were calculated from saturation curves obtained measuring the protein fluorescence emission intensity as a function of increasing PLP concentration. Fluorescence emission measurements were carried out at 25°C, in 50 mM NaHEPES buffer at pH 7.6 with a FluoroMax‐3 Jobin Yvon Horiba spectrofluorometer, using a 1‐cm path length quartz cuvette. All analyzed YggS forms were used at a final subunit concentration of 0.1 μM. Fluorescence emission spectra were recorded from 310 to 450 nm upon excitation at 280 nm. Excitation and emission slits were set at 3 and 5 nm, respectively. Emission fluorescence values between 330 and 340 nm were averaged and analyzed using the following quadratic equation to obtain K D value: (1) Frel=Finf−F0×PLP+[YggS]+KD−PLP+[YggS]+KD^2−4[YggS]PLP/2/[YggS]+F0

apo‐eSHMT = apo‐eSHMT (Escherichia coli, UniProt P0A825); conditions: transfer to apo-SHMT
Protocol: as §2
WT Holo‐YggS (20 μM with respect to PLP) was mixed with 20 μM apo‐eSHMT in 50 mM NaHEPES buffer at pH 7.6.

[7] = Differential scanning fluorimetry (DSF), apparent Tm of YggS forms; format: physicochemical
Protocol: Differential scanning fluorimetry (DSF) assays were performed on a Real Time PCR Instrument (CFX Connect Real Time PCR system, Bio‐Rad, Hercules, CA). In a typical experiment, 2 μM WT and variant apo‐YggS forms in 50 mM NaHEPES, pH 7.5, 50 mM NaCl, and Sypro Orange (5x, Thermo Scientific) were mixed with various ligands (total volume of 25 μl) in a 96‐well PCR plate. Fluorescence was measured from 25°C to 95°C in 0.4°C/30 s steps (excitation 450–490 nm; detection 560–580 nm). All samples were run in triplicate. Denaturation profiles were analyzed as described in Nardella et al.[40]

For `Cc1ncc(CO)c(C=O)c1O` [PL, pyridoxal], the Kd (apo‐YggS [1]) was 57000 ± 20000 nM and the “binding to apo-YggS by DSF” value (apo‐YggS [2]; B6 vitamers and analogs) was “only PL and PNP bind”.

With `Cc1ncc(COP(=O)(O)O)c(C=O)c1O` [PLP, pyridoxal 5′‐phosphate] the Kd (apo‐YggS [1]) was 1.3 nM and ~1 nM, the “stoichiometry ratio of PLP binding” value (apo‐YggS [1]; titration with 1 μM apo-YggS) was “one” and the Kd (eSHMT) was roughly 5 nM. The “time to reach PLP binding equilibrium” value (apo‐YggS [3]) was no more than 3 s and the Kd (apo‐YggS [2]) was roughly 50000 nM.

B1: Escherichia coli pyridoxal 5'-phosphate homeostasis protein (YggS), wild type, holo-form (natural protein, E. coli, UniProt P67080 1-234, looked up)
chain: MNDIAHNLAQVRDKISAAATRCGRSPEEITLLAVSKTKPASAIAEAIDAGQRQFGENYVQEGVDKIRHFQELGVTGLEWHFIGPLQSNKSRLVAEHFDWCHTIDRLRIATRLNDQRPAELPPLNVLIQINISDENSKSGIQLAELDELAAAVAELPRLRLRGLMAIPAPESEYVRQFEVARQMAVAFAGLKTRYPHIDTLSLGMSDDMEAAIAAGSTMVRIGTAIFGARDYSKK
modifications: PLP covalently bound to Lys36 through a Schiff base linkage
notes: YggS (PLP homeostasis protein, PLPHP) of E. coli; K233 and K234 are the last two residues; Two wild-type constructs were made in pET28b(+): His-tag at the C-terminal end (NcoI/XhoI, pET28yggS) and His-tag at the N-terminal end (NdeI/EcoRI); Samples from the standard purification held about 70-80% PLP per monomer; also called holo-YggS; YggS-PLP; source: E. coli HMS174(DE3), purified (ammonium …)
With B1 the Kd [4] was 4800 ± 800 nM.

B2: K137A: E. coli YggS single lysine variant K137A (protein)
chain: MNDIAHNLAQVRDKISAAATRCGRSPEEITLLAVSKTKPASAIAEAIDAGQRQFGENYVQEGVDKIRHFQELGVTGLEWHFIGPLQSNKSRLVAEHFDWCHTIDRLRIATRLNDQRPAELPPLNVLIQINISDENSASGIQLAELDELAAAVAELPRLRLRGLMAIPAPESEYVRQFEVARQMAVAFAGLKTRYPHIDTLSLGMSDDMEAAIAAGSTMVRIGTAIFGARDYSKK
modifications: left off: His-tag, C-terminal, state not stated
For B2, the “capability to bind PLP covalently as a Schiff base” value [5] was “able to bind PLP as a Schiff base”, the “complementation of the 4dPN sensitivity phenotype of ΔyggS” value (E. coli ΔyggS) was “failed to complement” and the Kd [6] was 1.8 ± 1.9 nM. The “PLP transfer kinetics compared with WT YggS” value (apo‐eSHMT) was “same transfer kinetics as that observed with WT YggS”, the “T m (°C) Apo +2 μM PLP” value ([7]; 2 μM protein + 2 μM (equimolar) PLP) was 71.5 ± 0.1 °C and the “T m (°C) Apo + 300 μM PLP” value ([7]; 2 μM protein + 300 μM PLP) was 82.5 ± 0.1 °C. For the same molecule, the “T m (°C) Apo” value ([7]; apo-form, 2 μM protein, no PLP) was 60.3 ± 0.1 °C.
